The test has as its target ARPC4-His6x (human, UniProt P59998 1-168). The test is described as follows: far-Western, overlay or dot blot. The settings on record: both partners purified.

B1: GST-Rv1626 (natural protein)
chain: MTGPTTDADAAVPRRVLIAEDEALIRMDLAEMLREEGYEIVGEAGDGQEAVELAELHKPDLVIMDVKMPRRDGIDAASEIASKRIAPIVVLTAFSQRDLVERARDAGAMAYLVKPFSISDLIPAIELAVSRFREITALEGEVATLSERLETRKLVERAKGLLQTKHGMTEPDAFKWIQRAAMDRRTTMKRVAEVVLETLGTPKDT
notes: also called Rv1626-pGEX4T3nn; not shown: GST, N-terminal, kept
For B1, the binding result is “binds”.

The record behind these values is publication PMC3718739 (PLoS ONE, 2013).
